According to article PMC3329130 (Biochemistry, 2012):
Changes are numbered by the printed parent chain. Names may count otherwise. One block for each molecule: values may come before it.

How the values were obtained:
[1] = biological target: T1, Sac1 (phosphatase domain of yeast Sac1, residues 1-511) (Saccharomyces cerevisiae, UniProt P32368); assay: malachite green phosphate release, PI; format: biochemical; conditions: fixed PI(4)P, pH 6.8, room temperature; allosteric activator
T1 sequence (P32368 1-511): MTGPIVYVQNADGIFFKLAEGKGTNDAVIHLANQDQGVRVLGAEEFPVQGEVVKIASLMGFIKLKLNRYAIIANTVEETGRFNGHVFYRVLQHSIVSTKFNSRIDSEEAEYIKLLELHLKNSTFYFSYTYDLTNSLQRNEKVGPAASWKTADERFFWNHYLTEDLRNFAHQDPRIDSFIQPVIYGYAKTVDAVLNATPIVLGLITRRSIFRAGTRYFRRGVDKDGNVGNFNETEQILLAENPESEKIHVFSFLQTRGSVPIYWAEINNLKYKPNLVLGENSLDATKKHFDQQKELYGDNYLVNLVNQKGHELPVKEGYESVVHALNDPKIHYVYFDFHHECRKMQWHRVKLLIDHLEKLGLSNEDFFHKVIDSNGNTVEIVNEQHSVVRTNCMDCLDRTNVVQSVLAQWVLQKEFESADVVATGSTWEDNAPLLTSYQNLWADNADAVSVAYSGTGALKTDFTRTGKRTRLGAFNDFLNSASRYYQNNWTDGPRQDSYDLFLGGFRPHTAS

[2] = biological target: yeast Sac1 phosphatase domain (amino acids 1-511) (yeast) (UniProt P32368); assay: AUC
[3] = substrate: CCCCCCCC(=O)OC[C@H](COP(=O)(O)O[C@H]1[C@H](O)[C@@H](O)[C@H](OP(=O)(O)O)[C@@H](O)[C@H]1O)OC(=O)CCCCCCC; assay: purified protein; conditions: no activator; sigmoidal, Hill coefficient 3.6 ± 0.3; buffer as for wild type

Molecule: CCCCCCCC(=O)OC[C@H](COP(=O)(O)OC[C@H](N)C(=O)O)OC(=O)CCCCCCC [diC8 PS]
activation [1]: Sac1 is strongly activated by phosphatidylserine (PS)

percent of the protein in the dimeric form [2]: 20%
stoichiometry N [2]: 2
Molecule: yeast Sac1 phosphatase domain (amino acids 1-511) (from UniProt P32368 1-511) (domain or fragment)

B1: Sac1 (phosphatase domain of yeast Sac1, residues 1-511) (Saccharomyces cerevisiae S288C; R207Q) (protein)
chain: T1 sequence (P32368 1-511) with R207Q
K0.5 [3]: 46 ± 5 µM
